Square brackets hold non-standard residues; d marks the D form. pGlu = O=C1CC[C@@H](C(=O)O)N1; PEG = not defined here

Assay [1] has as its target T1, Aβ(pE11-18)-PEG peptide (reading uncertain).
T1 construct: The PEG attachment is not described further
T1 peptide: [pGlu]VHHQKLV-{PEG}
Briefly: ITC at 20 °C, peptide titrated into antibody eluted with KSCN gradient. The protocol: The measurement of heat of reaction was performed at 20° C. Furthermore the heat of reaction was determined which was only generated by dilution of the antigen through the titration into ITC buffer (pH=7.1). Therefore the antigen was injected into the sample cell filled with ITC buffer. The heat of reaction which was generated during the titration of the antigen to the antibody was corrected about this value. The analysis of raw data and the determination of the association constant (KA), reaction stoichiometry (n), binding enthalpy (ΔH) and entropy (ΔS) was performed with Origin Software of MicroCal.
To characterize the binding of anti Aβ11(pE) antibody at the Aβ(pE11-18)-PEG peptide the method of Isothermal Titration calorimetry (ITC) was used (see section 1.3.4). The antibody which was eluted from protein G column with KSCN-gradient (pH 7.0) and 0.1 M glycine-HCl (pH 2.7) was analyzed. With ITC the reaction stoichiometry (N), association constant (KA), binding enthalpy (ΔH) as well as the entropy (ΔS) were determined. The peptide was titrated to anti Aβ11(pE) antibody in the ITC MicroCalorimeter as described in section 1.3.4.2. […] The reaction partners interact and heat is released or absorbed in direct proportion to the amount of binding events. Each injection of antigen leads to change of temperature. To compensate the temperature difference between the sample and reference cell the addition or removal of heat to the sample cell occurs and serves as measurement signal.
At first the heat of the Aβ(pE11-18)-PEG dilution in ITC buffer was determined (see FIG. 16, upper trace). […] Afterwards the peptide Aβ(pE11-18)-PEG was titrated to anti Aβ11(pE) antibody in the sample cell (see FIG. 16, lower trace). The total heat release after each injection was determined by integration of the area between each peak and baseline. Then the heat of dilution (see FIG. 16, upper trace) was subtracted from the total heat release of each injection.

For the next assay, the target named is T2, Aβ(pE11-20)-biotin.
T2 construct: Immobilized on streptavidin-coated microplates in the auto-Ig-ELISA
T2 peptide: [pGlu]VHHQKLVFF-biotin
The experiment in a line: ELISA: 200 ng/ml Aβ(pE11-20)-biotin on streptavidin plate, antibody 55-3500 pg/ml, detection with rabbit anti-mouse Ig's HRP, absorption 450/540 nm. As for the experimental part: Immobilization of 200 ng/ml Aβ(pE11-20)-biotin at streptavidin coated microplate (2 h, at RT). Blocking with 200 μl ELISA-Blocker (−T) 1 h at RT and followed by wash cycle (3×300 μl/well wash buffer). Standard anti Aβ11(pE) antibody (clone 13) was diluted in ELISA-Blocker (+T) in radix division from 3500 pg/ml down to 55 pg/ml and incubated 2 h at 4° C. A wash cycle followed and detection with polyclonal rabbit anti-mouse Ig's HRP 1 h at 4° C. After wash cycle TMB/H₂O₂ were added, incubated 30 min at RT (dark) and enzyme reaction was stopped with 1 M H₂SO₄. Absorption was measured at 450/540 nm at TECAN Sunrise.
For orientation: An ELISA detects its analyte on a solid surface through an enzyme-linked reagent.

Assay [2] deals with T1, Aβ(pE11-18)-PEG peptide. The experiment in a line: ITC at 20 °C, peptide titrated into antibody eluted with KSCN gradient (KD=1/KA). As for the experimental part: For the ITC experiment, the peptide Aβ(pE11-18)-PEG was used because the hydrophilic PEG group imparts hydrophilic properties and so it was possible to dissolve the peptide directly in ITC buffer. Former experiments with Aβ(pE11-20) could only be performed with 1-2% DMSO, due to the strong hydrophobicity of the peptide it was necessary to dissolve it with DMSO which could have an effect on the ITC binding properties. At first the antibody was dialyzed against ITC buffer (150 mM NaCl, 25 mM Na₂HPO₄, 25 mM KH₂PO₄, 1 mM EDTA, pH=7.1) over night at 4° C. The lyophilised peptide, stored at −20° C., was dissolved in identical ITC buffer pH=7.1 which was used for antibody dialysis. Both antibody and antigen must be in identical solutions, otherwise large heats of dilution will mask the desired observation. Before the ITC experiment, the concentration of antibody was determined by UV/VIS spectroscopy (see section 1.3.1). […] Furthermore the heat of reaction was determined which was only generated by dilution of the antigen through the titration into ITC buffer (pH=7.1). […]
To characterize the binding of anti Aβ11(pE) antibody at the Aβ(pE11-18)-PEG peptide the method of Isothermal Titration calorimetry (ITC) was used (see section 1.3.4). The antibody which was eluted from protein G column with KSCN-gradient (pH 7.0) and 0.1 M glycine-HCl (pH 2.7) was analyzed.

B1: monoclonal mouse anti Aβ11(pE) antibody Aβ 13-11-6 (clone 13), Deposit No. DSM ACC 3100 (antibody, V domains shown)
VH: QVQLQQPGTELVKPGASVKLSCKASGFTFTSYWMHWVRQRPGQGLEWIGEINPSNGRTNYNEKFKSKATLTVDKSSSTAYMQLSSLTSEDSEVYYCARGDLAWDWSAYWGQGTLVTVSA
VL: DIVMSQSPSSLAVSAGEKVTMSCKSSQSLFYSRTRKNYLAWYQQKPGQSPKLLIYWASTRESGVPDRFTGSGSGTDFTLTISSVQAEDLAVYYCKQSYNLWSFGGGTKLEIKR
notes: The KSCN-eluted and glycine-HCl-eluted preparations are the same molecule; also called pEVHH-59025 13-11-6; mAb mouse anti Aβ11(pE)
Broadly, the Kd is the equilibrium constant for the complex coming apart. Low readings indicate tighter binding, high ones weaker binding. Take B1: in the assay with Aβ(pE11-18)-PEG peptide [1], the “-TΔS” value was -1.27 kcal/mol, the Ka came to 1.27e+07 M⁻¹ and the “Stoichiometry (N)” value was determined as 1.88. Moreover, in the assay with Aβ(pE11-20)-biotin, the binding result is “binds”. Besides, binding with Aβ(pE11-18)-PEG peptide [2] was characterised by a dissociation constant (Kd) of 78.7 nM.

These data come from US20140255414A1 (PROBIODRUG, published 2014).
